# Laboratory results reported in patent publication US20090233266A1.
# Biological target: C-terminal domain of the NS2 protein of hepatitis C virus, amino acids 94 to 217 of NS2 from HCV genotype 1a strain H77 (residues 903 to 1026 of the HCV polyprotein) (hepatitis C virus genotype 1a strain H77) (UniProt P27958)
# Experiment: X-ray crystal structure
substance,measurement,value
"C-terminal domain of the NS2 protein of hepatitis C virus, amino acids 94 to 217 of NS2 from HCV genotype 1a strain H77 (residues 903 to 1026 of the HCV polyprotein) (from UniProt P27958) (enzyme)",total buried surface area,1100 Å^2
